From paper PMC7457537, “Influence of the amino-terminal sequence on the structure and function of HIV integrase” (Retrovirology, 2020)

Tests used:
Conditions in all cases: both partners purified
[1] = target: T1, HIV-1 integrase with native N-terminal phenylalanine (IN 1F), full-length, wild type (HIV-1 (NL4-3)); assay: SEC-MALS; Superdex 200 10/300, 25 °C, 20 mM HEPES-NaOH pH 7.5, 500 mM-1 M NaCl, 7 mM CHAPS, 10 µM ZnOAc2, 10 µM β-mercaptoethanol; eluted concentrations ~8-10 µM (IN 1F, IN MF); self-association
T1 chain: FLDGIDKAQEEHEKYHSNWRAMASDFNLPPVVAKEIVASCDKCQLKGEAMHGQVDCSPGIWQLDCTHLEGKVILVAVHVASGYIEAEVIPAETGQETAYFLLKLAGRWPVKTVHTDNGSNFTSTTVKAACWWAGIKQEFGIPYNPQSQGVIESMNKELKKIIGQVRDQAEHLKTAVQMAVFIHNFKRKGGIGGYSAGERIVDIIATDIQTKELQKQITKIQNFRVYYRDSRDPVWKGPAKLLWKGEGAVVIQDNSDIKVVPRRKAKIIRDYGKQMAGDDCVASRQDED

[2] = target: T1, HIV-1 integrase with native N-terminal …; assay: AUC; sedimentation equilibrium, 4 °C, same data and buffer as the monomer-dimer fit; attempted fit of a dimer-tetramer equilibrium: tetramer to dimers
[3] = target: T1, HIV-1 integrase with native N-terminal …; assay: AUC; sedimentation equilibrium, 4 °C, 20 mM HEPES-NaOH pH 7.5, 1 M NaCl, 7 mM CHAPS, 10 µM ZnOAc2, 10 µM β-mercaptoethanol; global fit at 16, 20, 24 krpm (SEDPHAT); dimer to monomers

B1: HIV-1 integrase with native N-terminal phenylalanine (IN 1F), full-length, wild type (enzyme)
chain: FLDGIDKAQEEHEKYHSNWRAMASDFNLPPVVAKEIVASCDKCQLKGEAMHGQVDCSPGIWQLDCTHLEGKVILVAVHVASGYIEAEVIPAETGQETAYFLLKLAGRWPVKTVHTDNGSNFTSTTVKAACWWAGIKQEFGIPYNPQSQGVIESMNKELKKIIGQVRDQAEHLKTAVQMAVFIHNFKRKGGIGGYSAGERIVDIIATDIQTKELQKQITKIQNFRVYYRDSRDPVWKGPAKLLWKGEGAVVIQDNSDIKVVPRRKAKIIRDYGKQMAGDDCVASRQDED
modifications: Zn2+ bound in the NTD (H12, H16, C40, C43); native N-terminal Phe1; monomer-dimer equilibrium. Limits: the paper gives F1 as the start and full length; the integrase chain follows RT (ends at 1147) …
stoichiometry N [1]: 2 | Kd [2]: > 1000 µM | Kd [3]: 59.8 µM
